What all share (conditions): both partners purified
Experiment [1] concerns the target T1, recombinant human laminin-211 (human, UniProt P24043 23-3122; P07942 22-1786; P11047 34-1609).
T1 construct: laminin subunit alpha-2, human; chain told by the isoform's name; laminin subunit beta-1, human; laminin subunit gamma-1, human; source: bought: BioLamina (recombinant human, >95% purity); copies: + +
Briefly: ELISA; plates coated with 10 μg/mL laminin isoform; 1 μg/mL GF for 60 min at RT in the absence or presence of 10 μM heparin; bound GF detected with an antibody for each GF. Background: In an ELISA, binding on a coated surface is turned into a signal by an enzyme label.

Experiment [2] has as its target T2, recombinant human laminin-111 (human, UniProt P25391 18-3075; P07942 22-1786; P11047 34-1609).
T2 construct: laminin subunit alpha-1, human; chain told by the isoform's name; laminin subunit beta-1, human; laminin subunit gamma-1, human; source: bought: BioLamina (recombinant human, >95% purity); copies: + +
The description is as above.

In experiment [3] the target is T3, recombinant human laminin-521 (human, UniProt O15230 36-3695; P55268 33-1798; P11047 34-1609).
T3 construct: laminin subunit alpha-5, human; chain told by the isoform's name; laminin subunit beta-2, human; laminin subunit gamma-1, human; also called laminin isoform-521; source: bought: BioLamina (recombinant human, >95% purity); copies: + +
Briefly: SPR; laminin-521 immobilised by amine coupling on a C1 chip (~2000 RU); GF flown at 20 μL/min in 0.01 M HEPES pH 7.4, 0.15 M NaCl, 0.005% surfactant P20; Langmuir binding kinetics.

In experiment [4] the target is T4, recombinant laminin LAMA3_(2928–3150) protein (human, UniProt Q16787 2928-3150).
T4 construct: laminin subunit alpha-3, human, LG domain Ser2928-Cys3150 (linker domain and LG4 domain); also called laminin alpha 3 LG domain recombinant protein; source: HEK-293F, transfected, purified from culture medium (HisTrap, size-exclusion chromatography)
T4 sequence (looked up): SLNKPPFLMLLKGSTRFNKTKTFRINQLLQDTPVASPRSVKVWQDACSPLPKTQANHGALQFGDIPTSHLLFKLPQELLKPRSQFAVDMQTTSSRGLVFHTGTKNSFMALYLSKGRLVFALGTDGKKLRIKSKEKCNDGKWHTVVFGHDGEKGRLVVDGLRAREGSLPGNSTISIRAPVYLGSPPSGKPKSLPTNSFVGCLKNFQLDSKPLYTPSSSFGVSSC
Briefly: ELISA; plates coated with 1 μg/mL recombinant laminin LG domain; 1 μg/mL GF added; bound GF detected with an antibody for each GF; BSA-coated wells as control.

For experiment [5], the target named is T1, recombinant human laminin-211. Put plainly: ELISA; plates coated with 50 nM GF or chemokine in PBS; 10 nM laminin isoform in PBS added; bound laminin detected with anti-LAMC1 or anti-LAMA3 polyclonal antibody; A450 signals greater than 0.1 taken as binding; BSA-coated wells as control.
Experiment [6] has as its target T2, recombinant human laminin-111. The experiment is described as above.
Experiment [7] deals with T4, recombinant laminin LAMA3_(2928–3150) …. Briefly: SPR; LAMA3 2928–3150 immobilised by amine coupling on a C1 chip (~1000 RU); GF flown at 20 μL/min in 0.01 M HEPES pH 7.4, 0.15 M NaCl, 0.005% surfactant P20; Langmuir binding kinetics.

B1: placental growth factor (PlGF)-2 (ligand, human, UniProt P49763-3 19-170, looked up)
chain: LPAVPPQQWALSAGNGSSEVEVVPFQEVWGRSYCRALERLVDVVSEYPSEVEHMFSPSCVSLLRCTGCCGDENLHCVPVETANVTMQLLKIRSGDRPSYVELTFSQHVRCECRPLREKMKPERRRPKGRGKRRREKQRPTDCHLCGDAVPRR
notes: placenta growth factor, form PlGF-2, human, bought in its mature form; source: bought: PeproTech; produced in Escherichia coli
Take B1: the binding result in experiment [1], in experiment [2] and in experiment [4] was “binds” in each case. Besides, the Kd in experiment [3] was found to be 12.9 nM.

B2: platelet-derived growth factor PDGF-BB (ligand, human, UniProt P01127 82-190, looked up)
chain: SLGSLTIAEPAMIAECKTRTEVFEISRRLIDRTNANFLVWPPCVEVQRCSGCCNNRNVQCRPTQVQLRPVQVRKIEIVRKKPIFKKATVTLEDHLACKCETVAAARPVT
notes: platelet-derived growth factor subunit B, human, bought in its mature form; a homodimer by its name; source: bought: PeproTech; produced in Escherichia coli
Turning to B2, the binding result in experiment [5] and in experiment [6] was “binds” in each case. Moreover, the values for the Kd in experiment [7] and in experiment [3] were 10.2 nM and 24.2 nM, respectively.

In general, Kd refers to the constant that tells how readily two partners part at equilibrium.

Source of the values: PMC5986797, “Laminin heparin-binding peptides bind to several growth factors and enhance diabetic wound healing” (Nature Communications, 2018).
